Tests used:
[1] = test system: MS2 coat protein; test: apparent KD of MS2 coat protein, switch ON state; designed switch direction (-1 OFF switch, 1 ON switch): -1; higher = weaker reporter binding; conditions: FMN input: 0 or 200 uM; Eterna round: R93 (includes R88 designs)
In short: (§1)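 Each design's apparent KD comes from the median of binding-curve fits to its normalised clusters. Those clusters carried RNA switches transcribed on-chip from Illumina sequencing clusters. SNAP-549-labelled MS2 coat protein was titrated onto them in twofold steps (0.7 or 1.5 nM to 3 µM; per step 0.8–1.5 h down to 10–20 min). Conditions were 100 mM Tris-HCl pH 7.5, 80 mM KCl, 4 mM MgCl2, without or with constant ligand.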

[2] = test system: MS2 coat protein; test: apparent KD of MS2 coat protein, switch OFF state (with FMN for OFF switches, without FMN for ON switches); designed switch direction (-1 OFF switch, 1 ON switch): -1; higher = weaker reporter binding; conditions: FMN input: 0 or 200 uM; Eterna round: R93 (includes R88 designs)
In short: as §1

| Sequence | apparent KD of MS2 coat protein [1] | apparent KD of MS2 coat protein [2] |
| --- | --- | --- |
| AAAACACAUGAGGAUCACCCAUGUGAGGAUAUGCAUAAAAAAAAAAAAAAAAAAAAAUGCAGAAGGCACAUAAA [jn_camden] | 21 nM | 41.3 nM |
| AAAAAGUGAGGAUAUACGGUGAGGAGUAGACACAACCUGGCGUAGAAGGCACAUGAGGAUCACCCAUGUCCAAA [EX4 Malc#13] | 37.3 nM | 47.8 nM |
| AAACCACAUGAGGAUCACCCAUGUCAGGAUAUGAACGAAAUAAAAUAAAAAUAAAAGUUCAGAAGGGACGAAAA [Mat - Exclusion 1 - Eli mod - D17] | 27.3 nM | 33.8 nM |
| AUAAGUGCAGGAUAUACAAAAUGCUAGCGAAAGCUAGCAUAACAUGAGGAUCACCCAUGUAGAAGGGCACAAUA [Tetraloop hairpin BlockHead... 61% 1] | 23.5 nM | 18.4 nM |
| AACAGGACAGGAUAUACAUGAGGAUCACCCAUGUAGGAAUUAAGCAGAGUACCAAACAGUAGAAGGGUCAUGGA [Ruby 27] | 33.3 nM | 44.7 nM |
| AAAAAACAUGAGGAUCACCCAUGUAAGGAUAUACCUAAAAAAAAAAAAAAAAAAAAUGGUAGAAGGUACAAAAA [excalibur12] | 28.1 nM | 67.5 nM |
| AGAAAGGCAGGAUAUACAUGAGGAUCACCCAUGUUAAGAAAGACGGAAACGUCAAGAAGUAGAAGGGCCAAGAA [Shaken, but not stirred] | 21.9 nM | 19.7 nM |
| AAAAAGGCAGGAUAUGCAUACACACGAAAAAAAAAACUGGGACAUGAGGAUCACCCAUGUAGAAGGGCCAAAAA [Dora Explored 9 - Jieux - Exclusion 2] | 67.5 nM | 41.9 nM |
| AAUAAGUGAGGAUAUACUAAAGAAAUGAAAAGAAAUAAAGAACAUGAGGAUCACCCAUGUAGAAGGCACAAUAA [Sekheperenre] | 24.4 nM | 24.5 nM |
| GGUUGGCGAGGAUAUACAUGAGGAUCACCCAUGUGAGAGAAAAUAGUGAGAAAGAAAAGUAGAAGGCGCUGACG [salish99-ex3-42] | 113 nM | 235 nM |
| AGAAAGUCAGGAUAUACGAAAGUGCGAAAGCACAAAAGGGAACAUGAGGAUCACCCAUGUAGAAGGGACAAGAA [Diamond 77] | 91.4 nM | 170 nM |
| AGAAAGUCAGGAUAUGUACAAAAUAAAAUAAAAAUAAAAGUACAGAAGGGACAUGAGGAUCACCCAUGUAAAGA [Mat - Exclusion 4 - Mayanna - D121] | 50.2 nM | 52.4 nM |
| AGUCGGCGAGGAUAUACAUGAGGAUCACCCAUGUGAGAGAAAAAAGUGAGUUAGACAUGUAGAAGGCGCUGACA [JL Lego Mod 8] | 54 nM | 26.8 nM |
| AGUCCAGAAGGAUAUACAUAGGUGAAAAAAAAAAAAAAACUACAUGAGGAUCACCCAUGUAGAAGGUCUGGACA [Mod of Brourd] | 58.6 nM | 25.5 nM |
| AAGAGUACAGGAUAUAUGUGAAAAGAGUCGAAAGACUCGGGACAUGAGGAUCACCCAUGUAGAAGGGUACUCAA [Diamond 75] | 75.7 nM | 79.7 nM |
| AAGAAACAUGAGGAUCACCCAUGUGAGGAUAUUCAAAAGAAAAGAAAAGAAAGAAGAAGAAGAAGGCACAAAGG [Neferkamin] | 24.7 nM | 45.5 nM |
| AGAAUACAUGAGGAUCACCCAUGUGAGGAUAUAUGAAGAAAAAGAAAAGAAAAGAAACAUAGAAGGCACAAAAG [EX 1 May 16] | 16.1 nM | 86.7 nM |
| AAGAAAGGAGGAUAUACAAGAAAGAAAGAAAAGAAAAGAAAACAUGAGGAUCACCCAUGUAGAAGGCCUUAGAA [EteRNA is fun!] | 26.9 nM | 17.8 nM |
| AAGGGACAUGAGGAUCACCCAUGUCAGGAUAUGAUGCGAAUAAAGAAAGAAUAAAGCAUCAGAAGGGACGCCAA [Mat - Exclusion 1 - Eli mod - D65] | 21.1 nM | 25.7 nM |
| AUCUACCUAGGAUAUACAUGAGGAUCACCCAUGUACAGAUACAACUAGGGAAACACACGUAGAAGGAGGUAGAU [JR_Exc003_Sub1207] | 15.6 nM | 37.3 nM |
| AGAAUACAUGAGGAUCACCCAUGUGAGGAUAUGUGAAGAAAAAGAAAAGAAAAGAAACACAGAAGGCACAAAAG [EX 1 May 17] | 29.7 nM | 69.3 nM |
| UAUAACGAAGGAUAUACUAACGAAACUAAUGCAUAUAUAUAACAUGAGGAUCACCCAUGUAGAAGGUCGAGAAU [JR_Exc002_Sub011] | 23.7 nM | 28.8 nM |
| AACAUGUUAGGAUAUAGAAGAAAAGAAAAGAAAGAAAAGAACUAGAAGGAACAUGAGGAUCACCCAUGUAAGAA [EteRNA is fun!] | 30.9 nM | 26.1 nM |

| Sequence | apparent KD of MS2 coat protein [1] | apparent KD of MS2 coat protein [2] |
| --- | --- | --- |
| AACUGGCUAGGAUAUACGUAAUAAAAUAUCAGUGAGAUUUCACAUGAGGAUCACCCAUGUAGAAGGAGCAAAAU [Esxereorar] | 24.5 nM | 16.6 nM |
| AAGAACCUAGGAUAUACAAAAUAAAAGAAAAGAAAGAAAGAACAUGAGGAUCACCCAUGUAGAAGGAGGAAGAA [Renseneb] | 48.3 nM | 18.5 nM |
| AGCUAGAGAGGAUAUACAUGGAAAAAAAAAGUCUGAUCCCUACAUGAGGAUCACCCAUGUAGAAGGCUCUGGCA [Ex2 Design 158: Sub-opt 22] | 23.5 nM | 13 nM |
| AAGAUGUCAGGAUAUACAUAAAUAAAAAAUUAUGUUAAAACACAUGAGGAUCACCCAUGUAGAAGGGACAACAA [AJ 6] | 36.4 nM | 20.7 nM |
| AACUGACAUGAGGAUCACCCAUGUCAGGAUAUGACUUGAUAGAAAAAAAAAUAUCAUGUCAGAAGGGACAUGGG [Design 56 :P Sub-opt I] | 21.4 nM | 12.8 nM |
| AAGAACUGAGGAUAUACACAAGAAAAGAAAAGAAAGAAAGAACAUGAGGAUCACCCAUGUAGAAGGCGGAAGAA [Merhotepre Sobekhotep V] | 39.3 nM | 26.5 nM |
| AACAGUACAGGAUAUACAUGAGGAUCACCCAUGUGAAAAUUAAGUGGAGUACCACAAGGUAGAAGGGUACUGGA [Mat - Exclusion 3 - Eli mod - D61] | 27.7 nM | 101 nM |
| AAAAAGUCAGGAUAUCUGGAUAGGAAAAAGAAAACCUAUCCAGAGAAGGGACAUGAGGAUCACCCAUGUAAAAA [JL cataway mod 1] | 49.2 nM | 42.4 nM |
| ACCUAACAUGAGGAUCACCCAUGUGAGGAUAUAGACGUGAAUUAAACACGUAACAAAACUAGAAGGCACUGGGC [Erbeardi] | 26.1 nM | 16.8 nM |
| AAAAAUCGAGGAUAUACAUGAGGAUCACCCAUGUAAAAAAAAAAAAAGGGAAAAAAAAGUAGAAGGCGAAAAAA [Sekhemre-Heruhirmaat Intef VII] | 58 nM | 30 nM |
| CAGUACUGAGGAUAUACAUGAGGAUCACCCAUGUAUUCCAGCUAGGAAACUAGCAAAUGUAGAAGGCAGUACUG [Ex3: 825] | 14 nM | 14.8 nM |
| UAAAAACAUGAGGAUCACCCAUGUGAGGAUAUGUACGAAAUAAAUAAAAAAUAAAAGUACAGAAGGCACAAAAU [Mat - Exclusion 1 - Eli mod - D6] | 37 nM | 52.6 nM |
| AAGAAGUCAGGAUAUACUAAAGAAAUAAAAAGAAAGAAAGAACAUGAGGAUCACCCAUGUAGAAGGGACAAGAA [Sewadjare Mentuhotep V] | 67.4 nM | 31.7 nM |
| AAAAAGAUAGGAUAUACGAACAUGUCGAAAGACGUGAAGGGACAUGAGGAUCACCCAUGUAGAAGGAUUAAAAA [Mat - Exclusion 2 - JL mod - D89] | 41.9 nM | 16.8 nM |
| CUCAAGUGAGGAUAUACGAAUAGUAAGUAAGUAUAACAGACGUAGAAGGCACAUGAGGAUCACCCAUGUAAAUA [JR_Exc004_Sub303] | 36.2 nM | 28 nM |
| ACUAACAGAGGAUAUACUAACAAACCUCAAACAUACAUCAAACAUGAGGAUCACCCAUGUAGAAGGCUGAAACU [JR_Exc002_Sub005] | 26.7 nM | 27 nM |
| GAAAAGCAAGGAUAUACAUGAGGAUCACCCAUGUGGAAUGGCGUGACCGAAAGAAAAGGUAGAAGGUGCACGUG [Ragetia] | 216 nM | 286 nM |
| CUUGUGUGAGGAUAUGUAAAAUGAAUAAGCAGUUCUAAAAGGCAGAAGGUACAUGAGGAUCACCCAUGUGAAAA [Inza] | 39.3 nM | 49.8 nM |
| AAAAACGCAGGAUAUACAUGAGGAUCACCCAUGUAAAAAAAAAAAAAGGGAAAAAAAAGUAGAAGGGCGAAAAA [Menkhaure Snaaib] | 21.4 nM | 43.3 nM |
| AACAGUACAGGAUAUACAUGAGGAUCACCCAUGUGAGAGAAAUAAAACAAAAAUAAAAGUAGAAGGGUACUGAA [Mat - Exclusion 3 - Eli mod - D67] | 31.8 nM | 36 nM |
| GAAAAGUCAGGAUAUGCAGAAAAAAAAACGAAAAAAAAACUGCAGAAGGGACAUGAGGAUCACCCAUGUUAAAA [Mat - Exclusion 4 - Mayanna - D127] | 41.5 nM | 31.2 nM |
| UUUAAGUCAGGAUAUUCGGAUAGGAAAACGAAAACCUAUCCGAAGAAGGGACAUGAGGAUCACCCAUGUAAAAA [Starry Exclusion 4.3 (cataway round 1 mod)] | 52.1 nM | 56.3 nM |

Reference: the supplement of paper PMC9170038
